Two molecules from patent publication US20220251184A1 (Regeneron, published 2022) can be followed below.

One experiment has as its target T1, Human BMP7 (human, UniProt P18075 293-431).
T1 sequence (looked up): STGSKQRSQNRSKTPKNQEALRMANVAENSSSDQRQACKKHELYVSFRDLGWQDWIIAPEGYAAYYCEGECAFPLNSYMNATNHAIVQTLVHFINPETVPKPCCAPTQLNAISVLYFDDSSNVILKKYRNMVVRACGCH
The experiment is described as follows: BLI (Octet HTX), mAb captured on Protein A sensor, 100 nM ligand, 25 C. How it is done: (§1) Binding cross-reactivity of anti-BMP6 monoclonal antibodies to BMP6 family members, (Human: BMP6, BMP5, BMP7, BMP8A, BMP9, BMP10, BMP12, BMP14, BMP3b, Activin A, and GDF3 and mouse: BMP6 and GDF6) was determined using a real-time Bio-Layer Interferometry (BLI) biosensor using Octet HTX instrument. All binding studies were performed in 10 mM HEPES, 150 mM NaCl, 3 mM EDTA, 1 mg/mL BSA, 50 μg/mL Heparin, and 0.05% v/v Surfactant Tween-20, pH 7.4 (HBS-EBHT) buffer at 25° C. with the plate shaking at a speed of 1000 rpm. To assess binding cross-reactivity, Protein A coated Octet biosensor (Pall ForteBio Corp., #18-5010) was first dipped in wells containing […] of anti-BMP6 monoclonal antibodies for 4 minutes followed by submerging in wells containing 100 nM of different BMP6 family members for 4 minutes. The biosensors were washed in HBS-EBHT buffer in between every step of the experiment. At the end of each cycle, the Protein A biosensor was regenerated using three alternate 5 second dips in 10 mM Glycine pH 2.0 and 10 second dip HBS-EBHT buffer. The real-time binding response was monitored during the course of the experiment and the binding response at the end of every step was recorded and tabulated as shown in Tables 8A and 8B.

Another experiment concerns the target T2, Mouse GDF6 (mouse, UniProt P43028 335-454, limits assumed).
T2 sequence (looked up): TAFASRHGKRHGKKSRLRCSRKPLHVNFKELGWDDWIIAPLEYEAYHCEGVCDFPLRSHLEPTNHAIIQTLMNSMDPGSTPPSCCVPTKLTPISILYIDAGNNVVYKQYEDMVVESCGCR
The description is as above. On the procedure: as §1

A further experiment concerns the target T3, Human BMP14/GDF5 (human, UniProt P43026 382-501).
T3 sequence (looked up): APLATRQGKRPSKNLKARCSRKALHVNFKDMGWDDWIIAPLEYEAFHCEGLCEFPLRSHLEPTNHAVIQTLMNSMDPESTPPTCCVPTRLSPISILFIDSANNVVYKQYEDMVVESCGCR
The description is as above. How it is done: as §1

The target of the next experiment is T4, Human BMP10 (human, UniProt O95393 317-424).
T4 sequence (looked up): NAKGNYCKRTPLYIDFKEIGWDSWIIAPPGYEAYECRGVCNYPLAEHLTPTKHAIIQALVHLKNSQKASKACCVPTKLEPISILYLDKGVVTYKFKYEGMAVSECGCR
Described as above. On the procedure:
as §1

Experiment [1] has as its target T5, human BMP6 (R&D Systems, Cat #507-BP) (human, UniProt P22004 375-513, limits assumed).
T5 construct: Bought protein (R&D Systems 507-BP or 507-BP/CF); also called hBMP6; hBMP-6
T5 sequence: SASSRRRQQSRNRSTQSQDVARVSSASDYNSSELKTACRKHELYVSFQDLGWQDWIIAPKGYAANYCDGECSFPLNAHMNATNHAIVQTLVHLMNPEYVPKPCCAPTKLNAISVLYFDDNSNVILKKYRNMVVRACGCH
The experiment is described as above. How it is done: as §1

Experiment [2] addresses T5, human BMP6 (R&D Systems, Cat #507-BP). The experiment is described as follows: SPR (MASS-1), mAb captured on anti-human Fc, hBMP6 in solution, 37 C; 37 C. On the procedure:
Equilibrium dissociation constants (KD values) for human and mouse BMP6 binding to purified anti-BMP6 monoclonal antibodies of this invention were determined using a real-time surface plasmon resonance (SPR) biosensor instrument, MASS-1. All binding studies were performed in 10 mM HEPES, 150 mM NaCl, 3 mM EDTA, 1 μg/mL Heparin, and 0.05% v/v Surfactant Tween-20, pH 7.4 (HBS-EHT) running buffer at 25° C. and 37° C. The HCA sensor surface was first derivatized by amine coupling the monoclonal mouse anti-human Fc antibody (GE, #BR100839) and anti-BMP6 monoclonal antibodies were individually captured. Different concentrations of human BMP6 reagents (hBMP6; R&D Systems, Cat #507-BP; 60 nM-0.94 nM; 4-fold serial dilution) or mouse BMP6 (mBMP6; R&D Systems, Cat #6325-BM; 60 nM and 15 nM) prepared in HBS-EHT running buffer were injected over the captured anti-BMP6 monoclonal antibody for 4 minutes at a flow rate of 30 μL/minute, while the dissociation of BMP6 reagent bound to captured anti-BMP6 monoclonal antibody was monitored for 10 minutes in HBS-EHT running buffer. Kinetic association (kₐ) and dissociation (kd) rate constants were determined by fitting the real-time binding sensorgrams to a 1:1 binding model with mass transport limitation using Scrubber 2.0c software. […]

B1: H4H17871P (antibody, V domains shown)
VH: EVQLVESGGGLVQPGGSLRLSCAASGFTFNNYAMSWVRQAPGKGLEWVSAISGSGDSTYYADSVKGRFTISRDNSKNTLYLQMNSLRAEDTAVYYCAKRSRSSPFDPWGQGTLVTVSS
VL: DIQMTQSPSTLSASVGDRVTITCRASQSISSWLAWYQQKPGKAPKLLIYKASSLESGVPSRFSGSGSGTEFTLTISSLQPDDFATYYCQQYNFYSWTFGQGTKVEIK
notes: Fully human antibody; also called anti-BMP6 monoclonal antibody; BMP6 antibody of the invention
As for B1, the binding response was 0 nm with Human BMP7; -0.02 nm with Mouse GDF6; -0.01 nm with Human BMP14/GDF5; 0.01 nm with Human BMP10; 0.21 nm in experiment [1].

B2: H4H17855P (antibody, V domains shown)
VH: EVQLVESGGGLVQPGGSLRLSCAASGFTFSSYAMSWVRQAPGKGLEWVSAISGSGGRTYYTDSVKGRFTMSRDNSKNTLYLQMNSLRAEDTAVYYCAKRPYNSPFDPWGQGTLVTVSS
VL: EIVLTQSPGTLSLSPGEGATLSCRASQSVSSSYLAWYQQKPGQAPRLLIYGASSRATGIPDRFSGSGSGTDFTLTISRLEPEDFVVYYCQHFGGTPFTFGGGTKVEIK
notes: as for B1
For the molecule B2, the binding response was 0.05 nm with Human BMP7; -0.02 nm in the experiment with Mouse GDF6; -0.02 nm with Human BMP14/GDF5; -0.01 nm with Human BMP10; 0.29 nm in experiment [1]. In addition, the dissociation rate constant (koff) in experiment [2] stood at 8.17e-05 s⁻¹.
